In the supplement of paper PMC9112550, “Optimization of the antimicrobial peptide Bac7 by deep mutational scanning” (BMC Biology, 2022):

Tested on: Escherichia coli TOP10
Test: shrunken log2 fold change of peptide-encoding DNA abundance (4.5 h post-induction vs induction); higher = less antimicrobial activity (less host growth inhibition)
Conditions: time post-induction: 4.5 h; library: site-saturation at positions 5, 18, 19, 20
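Note: peptides expressed intracellularly from a pBAD plasmid library in pooled LB shake-flask culture, induced with 0.3% L-arabinose, DNA abundance read by NGS, three biological replicates, DESeq2 with apeglm shrinkage.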

Sequence | shrunken log2 fold change
RRIRPRPPRLPRPRPRPLDVPRP | -0.146
RRIRCRPPRLPRPRPRPLTIPRP | -0.66
RRIRWRPPRLPRPRPRPWNLPRP | -0.0421
RRIRGRPPRLPRPRPRPIEFPRP | 0.0349
RRIRVRPPRLPRPRPRPSQVPRP | -0.215
RRIRLRPPRLPRPRPRPNLPPRP | -0.508
RRIRMRPPRLPRPRPRPPDNPRP | 1.55
RRIRWRPPRLPRPRPRPRAMPRP | 0.363
RRIRQRPPRLPRPRPRPCGPPRP | -0.141
RRIRMRPPRLPRPRPRPDCKPRP | -0.0414
RRIRCRPPRLPRPRPRPHGMPRP | -0.114
RRIRWRPPRLPRPRPRPDYVPRP | -0.208
RRIRFRPPRLPRPRPRPACGPRP | 0.0797
RRIRGRPPRLPRPRPRPEPPPRP | 1.79
RRIRCRPPRLPRPRPRPLLHPRP | -0.319
RRIRPRPPRLPRPRPRPPLDPRP | 0.517
RRIRTRPPRLPRPRPRPVQSPRP | -0.00991
RRIRFRPPRLPRPRPRPMHHPRP | -0.449
RRIRGRPPRLPRPRPRPLVLPRP | 0.401
RRIRLRPPRLPRPRPRPKMDPRP | -0.428
RRIRFRPPRLPRPRPRPDPEPRP | -0.0327
RRIRMRPPRLPRPRPRPKEFPRP | 0.103
RRIRQRPPRLPRPRPRPDVWPRP | -0.0325
RRIRIRPPRLPRPRPRPPSRPRP | 0.231
RRIRPRPPRLPRPRPRPDWYPRP | -0.213

Sequence | shrunken log2 fold change
RRIRTRPPRLPRPRPRPPQGPRP | 0.235
RRIRYRPPRLPRPRPRPISDPRP | -0.237
RRIRFRPPRLPRPRPRPQRQPRP | -0.064
RRIRDRPPRLPRPRPRPQYWPRP | -0.695
RRIRRRPPRLPRPRPRPWVVPRP | -0.0166
RRIRGRPPRLPRPRPRPDMMPRP | 0.023
RRIRTRPPRLPRPRPRPENKPRP | -0.178
RRIRSRPPRLPRPRPRPCFWPRP | 0.294
RRIRDRPPRLPRPRPRPQAHPRP | 0.0994
RRIRTRPPRLPRPRPRPQCCPRP | -0.0803
RRIRMRPPRLPRPRPRPYRFPRP | -0.118
RRIRVRPPRLPRPRPRPYLKPRP | -0.0795
RRIRMRPPRLPRPRPRPYFVPRP | 0.0021
RRIRWRPPRLPRPRPRPMAQPRP | 0.218
RRIRKRPPRLPRPRPRPAKHPRP | 0.0854
RRIRKRPPRLPRPRPRPKQRPRP | 0.393
RRIRYRPPRLPRPRPRPYMCPRP | -0.0233
RRIRTRPPRLPRPRPRPCDCPRP | -0.0712
RRIRPRPPRLPRPRPRPACCPRP | 0.405
RRIRWRPPRLPRPRPRPTWSPRP | 0.541
RRIRTRPPRLPRPRPRPPLQPRP | 0.369
RRIRSRPPRLPRPRPRPSHSPRP | -0.706
RRIRIRPPRLPRPRPRPWAKPRP | -0.235
RRIRYRPPRLPRPRPRPSNDPRP | -0.29
RRIRFRPPRLPRPRPRPLWPPRP | 0.264

Sequence | shrunken log2 fold change
RRIRRRPPRLPRPRPRPCHRPRP | -0.0875
RRIRHRPPRLPRPRPRPPSRPRP | 0.17
RRIRRRPPRLPRPRPRPLEFPRP | -0.0524
RRIRFRPPRLPRPRPRPEMDPRP | -0.00136
RRIRCRPPRLPRPRPRPYQFPRP | -0.0218
RRIRTRPPRLPRPRPRPPSEPRP | 0.42
RRIRLRPPRLPRPRPRPFEFPRP | -0.119
RRIRNRPPRLPRPRPRPGIDPRP | -0.042
RRIRSRPPRLPRPRPRPRYAPRP | -0.0842
RRIRARPPRLPRPRPRPLVNPRP | 0.0552
RRIRFRPPRLPRPRPRPMNEPRP | -0.595
RRIRNRPPRLPRPRPRPEHTPRP | -0.0129
RRIRTRPPRLPRPRPRPRHHPRP | -0.174
RRIRFRPPRLPRPRPRPTHLPRP | 0.222
RRIRIRPPRLPRPRPRPVYEPRP | -0.12
RRIRHRPPRLPRPRPRPFRVPRP | -0.371
RRIRQRPPRLPRPRPRPEGCPRP | -0.0749
RRIRTRPPRLPRPRPRPGIAPRP | -0.0278
RRIRNRPPRLPRPRPRPRPTPRP | 0.658
RRIRFRPPRLPRPRPRPPNEPRP | 0.0211
RRIRQRPPRLPRPRPRPYMCPRP | -0.184
RRIRRRPPRLPRPRPRPNEQPRP | 0.324
RRIRPRPPRLPRPRPRPWAMPRP | -0.223
RRIRMRPPRLPRPRPRPEVNPRP | 0.156
RRIRWRPPRLPRPRPRPFSGPRP | 0.0272

Sequence | shrunken log2 fold change
RRIRHRPPRLPRPRPRPSYQPRP | -1.14
RRIRTRPPRLPRPRPRPQRGPRP | 0.31
RRIRIRPPRLPRPRPRPQVTPRP | -0.4
RRIRHRPPRLPRPRPRPHGQPRP | 0.0111
RRIRVRPPRLPRPRPRPNWTPRP | 0.0136
RRIRKRPPRLPRPRPRPDWRPRP | 0.499
RRIRFRPPRLPRPRPRPRPGPRP | 0.837
RRIRVRPPRLPRPRPRPPGEPRP | 0.511
RRIRDRPPRLPRPRPRPGGMPRP | 0.0874
RRIRERPPRLPRPRPRPRNWPRP | -0.0255
RRIRERPPRLPRPRPRPFIHPRP | -1.12
RRIRFRPPRLPRPRPRPLEMPRP | -0.357
RRIRCRPPRLPRPRPRPSPVPRP | 0.00196
RRIRVRPPRLPRPRPRPILFPRP | -0.395
RRIRTRPPRLPRPRPRPPTAPRP | -0.0521
RRIRYRPPRLPRPRPRPFRTPRP | -0.0801
RRIRGRPPRLPRPRPRPKDEPRP | 0.696
RRIRPRPPRLPRPRPRPMWCPRP | -0.0757
RRIRFRPPRLPRPRPRPAHGPRP | 0.418
RRIRVRPPRLPRPRPRPEAYPRP | -0.0262
RRIRWRPPRLPRPRPRPPKIPRP | 0.22
RRIRLRPPRLPRPRPRPEFVPRP | 0.0203
RRIRARPPRLPRPRPRPYNHPRP | -0.402
RRIRGRPPRLPRPRPRPMGRPRP | 0.28
RRIRSRPPRLPRPRPRPEVWPRP | 0.779

Sequence | shrunken log2 fold change
RRIRKRPPRLPRPRPRPRDNPRP | 0.15
RRIRSRPPRLPRPRPRPHQPPRP | -0.00655
RRIRNRPPRLPRPRPRPCWAPRP | -0.057
RRIRIRPPRLPRPRPRPWGAPRP | 0.0191
RRIRGRPPRLPRPRPRPNMTPRP | 1.63
RRIRVRPPRLPRPRPRPSGFPRP | -0.131
RRIRIRPPRLPRPRPRPREGPRP | 0.229
RRIRNRPPRLPRPRPRPMAIPRP | -0.00192
RRIRERPPRLPRPRPRPETQPRP | 0.0866
RRIRGRPPRLPRPRPRPPWQPRP | 0.691
RRIRIRPPRLPRPRPRPDNEPRP | -0.117
RRIRTRPPRLPRPRPRPDDRPRP | 0.0143
RRIRFRPPRLPRPRPRPTPDPRP | 0.485
RRIRPRPPRLPRPRPRPPCEPRP | 0.522
RRIRKRPPRLPRPRPRPSRPPRP | 0.529
RRIRRRPPRLPRPRPRPPMMPRP | 0.21
RRIRRRPPRLPRPRPRPAKCPRP | 0.0405
RRIRMRPPRLPRPRPRPITYPRP | -0.0199
RRIRTRPPRLPRPRPRPDRDPRP | -0.126
RRIRCRPPRLPRPRPRPDVMPRP | -0.101
RRIRYRPPRLPRPRPRPRVRPRP | 0.175
RRIRMRPPRLPRPRPRPHPKPRP | 0.0698
RRIRWRPPRLPRPRPRPEVIPRP | 0.0286
RRIRGRPPRLPRPRPRPNHAPRP | -0.0738
RRIRHRPPRLPRPRPRPRADPRP | 0.185
